Values quoted from earlier work, collected in article PMC5548488.

Target: CAST/ELKS (UniProt Q8K3M6)
UniProt Q8K3M6, sequence (Q8K3M6 whole entry): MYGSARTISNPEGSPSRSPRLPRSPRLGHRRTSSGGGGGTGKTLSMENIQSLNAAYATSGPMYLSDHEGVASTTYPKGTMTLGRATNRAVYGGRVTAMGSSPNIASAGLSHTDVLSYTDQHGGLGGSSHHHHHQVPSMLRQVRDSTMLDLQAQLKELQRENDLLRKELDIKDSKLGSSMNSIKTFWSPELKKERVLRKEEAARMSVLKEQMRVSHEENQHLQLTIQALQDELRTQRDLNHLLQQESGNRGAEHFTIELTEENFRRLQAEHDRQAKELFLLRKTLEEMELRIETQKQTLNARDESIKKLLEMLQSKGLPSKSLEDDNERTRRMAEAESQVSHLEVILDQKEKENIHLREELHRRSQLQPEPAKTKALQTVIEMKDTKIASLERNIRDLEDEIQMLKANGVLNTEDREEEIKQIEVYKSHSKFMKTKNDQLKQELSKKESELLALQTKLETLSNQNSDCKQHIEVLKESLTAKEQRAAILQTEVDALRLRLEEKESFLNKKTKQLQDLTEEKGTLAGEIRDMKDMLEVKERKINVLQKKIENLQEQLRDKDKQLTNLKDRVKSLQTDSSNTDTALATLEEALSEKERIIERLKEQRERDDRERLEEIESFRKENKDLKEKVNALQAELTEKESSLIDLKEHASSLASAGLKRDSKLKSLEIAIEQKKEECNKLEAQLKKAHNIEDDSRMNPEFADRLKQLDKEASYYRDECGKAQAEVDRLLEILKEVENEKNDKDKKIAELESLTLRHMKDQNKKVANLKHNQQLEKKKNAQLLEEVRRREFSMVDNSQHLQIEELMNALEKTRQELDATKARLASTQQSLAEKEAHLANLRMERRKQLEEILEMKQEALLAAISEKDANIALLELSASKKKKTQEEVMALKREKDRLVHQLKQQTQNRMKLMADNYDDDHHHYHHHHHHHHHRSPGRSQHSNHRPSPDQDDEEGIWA

RIM PDZ (from UniProt Q86UR5)
Kd: 200 nM
